Data on 8 molecules can be found in paper PMC6765112, “Specificity of MYB interactions relies on motifs in ordered and disordered contexts” (Nucleic Acids Research, 2019).

For assay [1], the target named is T1, MYC4 N-terminal domain (L55-N253; MYC4Nt) (Arabidopsis thaliana, UniProt O49687).
T1 construct: MYC4 N-terminal domain (L55-N253; MYC4Nt) using a C-terminal 6×His tag; made in house; host or cells: Escherichia coli BL21(DE3), pET52u plasmid
T1 sequence (O49687 55-253): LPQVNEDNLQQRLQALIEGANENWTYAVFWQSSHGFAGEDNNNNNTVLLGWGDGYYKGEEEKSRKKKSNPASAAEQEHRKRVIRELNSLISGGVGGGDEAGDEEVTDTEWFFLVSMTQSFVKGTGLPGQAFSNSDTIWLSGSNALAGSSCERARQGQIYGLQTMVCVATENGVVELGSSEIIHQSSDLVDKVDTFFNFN
Nature of the assay: Bio-layer interferometry, binding of MYC4Nt to immobilised biotinylated MIM peptides. The conditions noted are these: for binding of MYC4Nt to immobilised peptide (in words): BLI, peptide immobilised on streptavidin biosensor, MYC4Nt dilution series. As for the experimental part: Single colonies of freshly transformed Escherichia coli BL21(DE3), carrying the pET52u plasmid for expressing MYC4 N-terminal domain (AA55-253; MYC4Nt) with a C-terminal 6×His tag, were inoculated in LB with ampicillin and grown overnight (37°C, 200 RPM). The next day, the culture was diluted to OD600 = 0.2 with cold (4°C) LB with ampicillin and grown at 18°C (100 RPM) in a baffled Erlenmeyer flask until OD600 = 1.0 (∼7.5 h). Protein expression was induced by addition of 0.1 mM IPTG, and the cultures grew for further 18 h at 18°C (100 RPM), before harvesting the cells by centrifugation (4000 g, 20 min), and storing the bacterial pellet at −20°C until protein extraction and purification. For extraction and purification, the bacterial pellet was resuspended in BugBuster Master Mix (Merck Millipore), 2.5 ml per 50 ml bacterial culture, containing 1× ethylenediaminetetraacetic acid-free complete protease inhibitor cocktail (Roche) and 1 mM dithiothreitol (DTT). Lysis proceeded by slow end-over-end rotation at room temperature for 30 min, and the lysate was cleared by centrifugation (20.000 g, 20 min, 4°C). The supernatant was diluted five times with His binding buffer (20 mM sodium phosphate, 500 mM NaCl, 40 mM imidazole, 1 mM DTT, pH 7.4) and filtered through a 0.2-micron filter using a syringe, before applying to a HisTrap HP 5 ml (GE Healthcare) IMAC column charged with Ni(II)Cl2. After washing thoroughly, bound protein was eluted with a linear buffer gradient to elution buffer (His binding buffer with 500 mM imidazole) over 20 column volumes, and 1.9 ml fractions collected in a 96-deepwell plate. Based on absorbance at 280 nm during elution, fractions were selected for analysis by sodium dodecyl sulphate-polyacrylamide gel electrophoresis and those fractions showing only the band of the recombinant protein at 22.7 kDa were pooled and concentrated using 3-kDa cut-off PES membrane ultrafiltration centrifugal tubes (Thermo Scientific™ Pierce). Concentrated protein was centrifuged at 20 000 g, 4°C for 10 min before being dialysed overnight to PBS pH 7.4 with 1 mM DTT. Protein concentration was estimated using the Lambert–Beer law based on absorbance at 280 nm, after blanking with the dialysis buffer (dialysate) and protein was stored in aliquots at −80°C. Aliquots of dialysate were stored at −20°C.
Biotinylated peptides were synthesized by TAG Copenhagen A/S (Copenhagen, Denmark). Lyophilized peptide was resuspended in H2O to a concentration of 400–500 μM and stored in aliquots at −80°C. […] Binding was measured with a BLItz Bio-Layer Interferometer (Pall ForteBio) using the advanced kinetics program in the BLItz Pro 1.2 software. […]

The subject of assay [2] is GL3. Nature of the assay: Split-ubiquitin assay, GL3 as bait. In kind it is cell-based, Arabidopsis thaliana. The conditions noted are these: yeast, SD-AHLW growth. As for the experimental part:
The rapamycin-compatible yeast strain NMY51 TOR1-1 Δfpr1 ([35]) was transformed according to DUALhunter™ kit instructions (Dualsystems biotech). Briefly, overnight 2×YPAD cultures were diluted to OD600 = 0.2, and incubated at 30°C, 150 RPM for 4–6 h in 2×YPAD, before harvesting the cells by centrifugation at 700 g for 5 min. The cells were washed with H2O, then 0.1 M LiOAc, before resuspending in 0.1 M LiOAc with 15% glycerol. The competent cells were then aliquoted and stored at −80°C until transformation. For double transformation with bait and prey plasmids, competent cells were thawed on ice, and mixed with transformation mix (240 μl 50% PEG-3350, 35 μl 1 M LiOAc and 25 μl 2 mg/ml ssDNA per transformation) and 200 ng of each plasmid, before being exposed to a 42°C heat shock in a water bath for 45 min. The cells were then chilled on ice for a few minutes, sedimented by centrifugation (3000 g, 1 min), resuspended in sterile H2O, plated on SD-LW plates and grown at 30°C for 2–3 days.
For drop tests, cells from three individual colonies of each bait/prey combination were grown overnight in liquid SD-LW media. Next day, culture densities were normalized to OD600 = 0.05, dilution series (OD600 = 0.05, OD600 = 0.005, OD600 = 0.0005 and OD600 = 0.00005) were spotted on square plates (SD-LW, SD-AHLW and SD-AHLW+Rapa) and grown for 2 days at 30°C before taking pictures.
To identify interaction sites mediating specific MYB–MYC complex formation, we selected two TFs from each family. These were MYB28 and MYB29 from MYB subgroup 12, and two of their partner bHLH TFs, MYC3 and MYC4. To define the region mediating the interactions we applied a chemically inducible dimerization split-ubiquitin system ([35]). […] This is used as an in-built positive control for correct expression and functionality of the prey fusion protein and thereby reduces the incidence of false negatives.

For assay [3], the system named is GL3. The conditions noted are these: ref [32]; cited from earlier work. An excerpt: To identify interaction sites mediating specific MYB–MYC complex formation, we selected two TFs from each family. These were MYB28 and MYB29 from MYB subgroup 12, and two of their partner bHLH TFs, MYC3 and MYC4. To define the region mediating the interactions we applied a chemically inducible dimerization split-ubiquitin system ([35]). […] As controls, we included the interaction between GL3 and MYB75, where a fragment c ...

The target of assay [4] is T2, MYC4 N-terminal domain (L55-N253) (Arabidopsis thaliana, UniProt O49687 55-253).
T2 chain: T1 sequence (O49687 55-253)
Nature of the assay: BLI.

Assay [5] has as its target T3, MYC4 N-terminal domain (L55-N253) (Arabidopsis thaliana, UniProt O49687 55-253).
T3 construct: MYC4, Arabidopsis thaliana, N-terminal domain with the JID, residues L55-N253 (AA55-253); recombinant protein of 22.7 kDa; expressed from pET52u; source: E. coli BL21(DE3), purified (HisTrap HP IMAC, dialysed to PBS pH 7.4 with 1 mM DTT); not shown: 6xHis, C-terminal, kept
T3 sequence (looked up): T1 sequence (O49687 55-253)
Nature of the assay: BLI; biotinylated peptide (1 μM) immobilised on streptavidin biosensors; MYC4Nt 130 to 0.1 μM; PBS pH 7.4, 1 mM DTT, 0.05% bovine serum albumin; BLItz; equilibrium responses fitted to a Hill equation. Particulars: both partners purified. On the technique in general: Biolayer interferometry detects binding as a change in optical thickness at a sensor tip.

“Also recorded” adds a separate entry of the source. Like-named read-outs stand apart in the source and are kept apart here. Ends that are not written are not given here. Peptide text beside a SMILES is read from it. * marks the point of attachment. Biotin = O=C1N[C@H]2[C@H](CS[C@H]2CCCCC(=O)*)N1

For `CSCC[C@H](NC(=O)[C@H](CO)NC(=O)[C@H](CO)NC(=O)[C@H](C)NC(=O)[C@H](CCCNC(=N)N)NC(=O)[C@H](C)NC(=O)[C@H](C)NC(=O)[C@@H](NC(=O)[C@H](CCCCN)NC(=O)[C@H](CC(N)=O)NC(=O)[C@H](CC(C)C)NC(=O)[C@H](CC(C)C)NC(=O)[C@H](CCCCN)NC(=O)[C@H](CO)NC(=O)[C@@H](NC(=O)[C@H](CO)NC(=O)[C@H](CO)NC(=O)[C@H](CO)NC(=O)[C@H](CCCNC(=N)N)NC(=O)[C@H](CCCCN)NC(=O)[C@H](Cc1ccccc1)NC(=O)CCCC[C@@H]1SC[C@@H]2NC(=O)N[C@@H]21)[C@@H](C)O)C(C)C)C(=O)NCC(=O)O` [WT-MIM] (Biotin-FKRSSSTSKLLNKVAARASSMG-OH), the “binding of MYC4Nt to immobilised peptide (in words)” value (from here on “binding of MYC4Nt”) in assay [1] is reported as “binding of MYC4Nt was observed even at sub micro molar concentrations; also recorded: stronger binding of the WT-MIM peptide compared to that of the L190V-MIM peptide”.

With `CSCC[C@H](NC(=O)[C@H](CO)NC(=O)[C@H](CO)NC(=O)[C@H](C)NC(=O)[C@H](CCCNC(=N)N)NC(=O)[C@H](C)NC(=O)[C@H](C)NC(=O)[C@@H](NC(=O)[C@H](CCCCN)NC(=O)[C@H](CC(N)=O)NC(=O)[C@@H](NC(=O)[C@H](CC(C)C)NC(=O)[C@H](CCCCN)NC(=O)[C@H](CO)NC(=O)[C@@H](NC(=O)[C@H](CO)NC(=O)[C@H](CO)NC(=O)[C@H](CO)NC(=O)[C@H](CCCNC(=N)N)NC(=O)[C@H](CCCCN)NC(=O)[C@H](Cc1ccccc1)NC(=O)CCCC[C@@H]1SC[C@@H]2NC(=O)N[C@@H]21)[C@@H](C)O)C(C)C)C(C)C)C(=O)NCC(=O)O` [L190V-MIM] (Biotin-FKRSSSTSKLVNKVAARASSMG-OH), the “binding of MYC4Nt” value in assay [1] is on record as “a strong binding signal, but at higher concentrations of MYC4Nt (>10 μM), than was necessary for the WT-MIM”. For the same molecule, in assay [1] (estimated, relative to WT-MIM peptide), the “affinity for MYC4Nt weaker than WT-MIM peptide” value is listed as about 10 fold. With “L190A-MIM: N-terminally biotinylated 22-residue peptide comprising the L190A MIM sequence of MYB29 (F180-G201) (Biotin-FKRSSSTSKLANKVAARASSMG)”, the “binding of MYC4Nt” value in assay [1] is listed as “Fit cannot converge; also recorded: an extremely weak response was seen only at high (>100 μM) concentrations of MYC4Nt; also recorded: the fit did not converge; also recorded: unable to detect binding”.

B1: MYB75: full-length MYB75 (MYB subgroup 6), control prey for GL3 (protein)
chain: MEGSSKGLRKGAWTTEEDSLLRQCINKYGEGKWHQVPVRAGLNRCRKSCRLRWLNYLKPSIKRGKLSSDEVDLLLRLHRLLGNRWSLIAGRLPGRTANDVKNYWNTHLSKKHEPCCKIKMKKRDITPIPTTPALKNNVYKPRPRSFTVNNDCNHLNAPPKVDVNPPCLGLNINNVCDNSIIYNKDKKKDQLVNNLIDGDNMWLEKFLEESQEVDILVPEATTTEKGDTLAFDVDQLWSLFDGETVKFD
modifications: left off: NubG and FRB (from the vector pFRB), end not stated, kept
notes: full-length MYB75 (MYB subgroup 6), control prey for GL3
Turning to B1, the “interaction with GL3 (in words)” value in the assay on GL3 [2] is listed as “results in growth on SD-AHLW plates”.

B2: non-MYB region of MYB75: non-MYB region of MYB75 (residues K110-D248) (protein)
chain: KKHEPCCKIKMKKRDITPIPTTPALKNNVYKPRPRSFTVNNDCNHLNAPPKVDVNPPCLGLNINNVCDNSIIYNKDKKKDQLVNNLIDGDNMWLEKFLEESQEVDILVPEATTTEKGDTLAFDVDQLWSLFDGETVKFD
modifications: left off: NubG and FRB (from the vector pFRB), end not stated, kept
In the case of B2, the “interaction with GL3 (in words)” value in the assay with GL3 [2] is listed as “does not”; in the assay on GL3 [3] it was “unable to interact”.

B3: WT-MIM peptide (F180-G201 of MYB29) (peptide, UniProt Q9FLR1 180-201, looked up)
peptide: Biotin-FKRSSSTSKLLNKVAARASSMG
notes: source: synthetic peptide (TAG Copenhagen A/S)
For orientation: Kd means the equilibrium constant for the complex coming apart. A low value points to tighter binding. As for B3, the Kd in assay [4] is 1.9 µM; in assay [5], 2.7 ± 0.8 µM.

B4: MYB75 DBD: fragment comprising the MYB DBD (residues M1-P114) (protein, UniProt Q9FE25 1-114, looked up, fragment)
chain: MEGSSKGLRKGAWTTEEDSLLRQCINKYGEGKWHQVPVRAGLNRCRKSCRLRWLNYLKPSIKRGKLSSDEVDLLLRLHRLLGNRWSLIAGRLPGRTANDVKNYWNTHLSKKHEP
With B4, the “interaction with GL3 (in words)” value was “results in growth on SD-AHLW plates” in the assay on GL3 [2] and “sufficient for this interaction” in the assay with GL3 [3].

B5: L190V-MIM peptide (F180-G201 of MYB29, L190V) (peptide)
peptide: Biotin-FKRSSSTSKLVNKVAARASSMG
B5 showed a Kd in assay [4] of 33 µM.
